Results on twelve substances are retold here after paper PMC4497506.

Test [1] has as its target hexahistidine-tagged soluble four-domain CD4 (UniProt P01730). In words: SPR.
Test [2] concerns the target HIV-1 YU-2 gp120 S375A (HIV-1 YU-2). Description: ITC.
In test [3] the target is HIV-1 YU-2 gp120 F210A (HIV-1 YU-2). In words: SPR.
The target of test [4] is HIV-1 YU-2 gp120 W112A (HIV-1 YU-2). In words: SPR.
Test [5] deals with HIV-1 YU-2 gp120 I109A (HIV-1 YU-2). Description: SPR.
The target in test [6] is wild-type HIV-1 YU-2 Env gp120, soluble monomeric (HIV-1 YU-2) (UniProt P35961). Description: SPR.
For test [7], the target named is HIV-1 YU-2 gp120 M426A (HIV-1 YU-2). Description: SPR.
Test [8] concerns the target HIV-1 YU-2 gp120 T257A (HIV-1 YU-2). In words: ITC.

In turn, “HIV-1 YU-2 gp120 F210A (natural protein)” returned a Kd in test [1] of 230 nM. On to “HIV-1 YU-2 gp120 I109A (natural protein)”, for which, in test [1], the Kd came out at 6.8 nM.

As to “HIV-1 YU-2 gp120 M426A (natural protein)”, the dissociation constant (Kd) in [1] was 59 nM.

For the substance “HIV-1 YU-2 gp120 S375A (natural protein)”, the Kd in [1] was 6.2 nM. Turning to “HIV-1 YU-2 gp120 S375H (natural protein)”, the Kd in [1] was found to be 5.2 nM. On the same count and under the same terms, the same measure for “HIV-1 YU-2 gp120 S375W (natural protein)”: 3.7 nM; for “HIV-1 YU-2 gp120 T257A (natural protein)”: 10.2 nM. The same measure, in the same setting: the same measure for “HIV-1 YU-2 gp120 T257R (natural protein)”: 21 nM. On to “HIV-1 YU-2 gp120 W112A (natural protein)”, for which the Kd is 83 nM with mAb F105 and 95 nM in [1]. The substance “peptide 1 (sequence-minimized peptide triazole Ile-Asn-Asn-Ile-X-Trp, X = ferrocenyl-triazolePro)” came in with a dH in test [2] of -9.1 kcal/mol. Moreover, the IC50 in [3] worked out at 200 nM.

On to “peptide 2 (peptide 1 with Trp replaced by Tyr)”, for which the 50% inhibitory concentration (IC50) in test [4] is above 50000 nM; in test [5], 3100 nM; in test [3], 4100 nM; in test [6], 3000 nM; in test [7] it was 5100 nM. In the case of “peptide 4 (peptide 1 with N-methylated indole at Trp 6)”, the values for the dH in test [8] and in [2] were -11 kcal/mol and -9.3 kcal/mol, respectively. The stoichiometry N in test [8] came to 1.15; in test [2], 1.13.
